According to article PMC11672854:

T1: Thioredoxin (TXN), P10599
T1 chain: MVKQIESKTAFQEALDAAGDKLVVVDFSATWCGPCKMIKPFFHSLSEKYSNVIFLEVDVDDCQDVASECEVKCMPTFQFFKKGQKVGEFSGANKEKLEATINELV


Experiments:
Assay in all cases: ELISA
[1] = molecular target: anti-AGR2 monoclonal antibody MAb-15 (VH-VL of scFv-15 in a full human IgG1 backbone); details: chain shown with the change; point at 1000 pM mAb-15 (highest concentration); plate coated with the AGR2 mutant; parent: est. 2.8; read off a plot
PDI (PDIA1), P07237 = details: chain shown with the change; plates coated with AGR2 or PDI (PDIA1); parent: 40
Sequence of PDI (PDIA1), P07237 (P07237 18-508): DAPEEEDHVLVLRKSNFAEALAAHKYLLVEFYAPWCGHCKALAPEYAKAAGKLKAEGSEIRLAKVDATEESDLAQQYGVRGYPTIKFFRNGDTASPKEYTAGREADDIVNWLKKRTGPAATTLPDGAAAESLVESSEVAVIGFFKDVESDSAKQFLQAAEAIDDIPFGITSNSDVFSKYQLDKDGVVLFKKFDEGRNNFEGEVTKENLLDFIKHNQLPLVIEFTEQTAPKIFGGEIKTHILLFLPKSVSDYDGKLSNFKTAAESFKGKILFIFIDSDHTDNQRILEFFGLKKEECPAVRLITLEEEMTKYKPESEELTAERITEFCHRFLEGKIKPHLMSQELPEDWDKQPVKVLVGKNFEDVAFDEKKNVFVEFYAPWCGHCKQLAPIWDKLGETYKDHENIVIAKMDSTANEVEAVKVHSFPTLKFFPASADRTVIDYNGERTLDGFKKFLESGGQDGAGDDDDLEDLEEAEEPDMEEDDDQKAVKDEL

[2] = molecular target: T1, Thioredoxin (TXN), P10599; details: chain shown with the change; plates coated with AGR2 or thioredoxin (TXN); parent: 30
BSA, P02769 = details: chain shown with the change; plates coated with AGR2 or BSA (control); parent: 101
Sequence of BSA, P02769 (P02769 25-607): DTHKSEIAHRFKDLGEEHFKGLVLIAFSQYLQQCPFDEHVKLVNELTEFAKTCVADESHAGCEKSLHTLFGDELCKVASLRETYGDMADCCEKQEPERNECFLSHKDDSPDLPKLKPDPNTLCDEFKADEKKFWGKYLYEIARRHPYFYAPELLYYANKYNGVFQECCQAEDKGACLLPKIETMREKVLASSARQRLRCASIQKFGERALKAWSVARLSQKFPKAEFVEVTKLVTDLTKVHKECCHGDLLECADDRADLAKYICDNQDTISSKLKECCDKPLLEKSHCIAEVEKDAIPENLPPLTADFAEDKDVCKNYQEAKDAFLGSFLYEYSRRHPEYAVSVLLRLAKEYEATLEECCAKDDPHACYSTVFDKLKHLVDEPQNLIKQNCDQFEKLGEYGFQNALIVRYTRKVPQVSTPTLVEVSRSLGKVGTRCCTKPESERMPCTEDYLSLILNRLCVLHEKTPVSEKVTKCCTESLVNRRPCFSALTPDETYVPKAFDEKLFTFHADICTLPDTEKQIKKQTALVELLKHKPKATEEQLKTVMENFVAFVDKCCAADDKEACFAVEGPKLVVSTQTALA

Sequence of anti-AGR2 monoclonal antibody MAb-15 (VH-VL of scFv-15 in a full human IgG1 backbone) (chain, as listed by the source, chain 1 of 2, one chain of several): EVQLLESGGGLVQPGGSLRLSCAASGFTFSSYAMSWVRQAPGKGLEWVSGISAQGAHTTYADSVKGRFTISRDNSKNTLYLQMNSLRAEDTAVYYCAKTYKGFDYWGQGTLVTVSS

Row | Binder | response [1] | other: AGR2 Specificity, PDI/AGR2 (EC50 relative to AGR2 binding) (PDI (PDIA1), P07237) | other: AGR2 Specificity, TXN/AGR2 (EC50 relative to AGR2 binding) [2] | other: AGR2 Specificity, BSA/AGR2 (EC50 relative to AGR2 binding) (BSA, P02769)
1 | Anterior Gradient-2 (AGR2/PDIA17), AGR2 (21-175), 6x-His tag removed, O95994 E60A (protein) RDTTVKPGAKKDTKDSRPKLPQTLSRGWGDQLIWTQTYEAALYKSKTSNKPLMIIHHLDECPHSQALKKVFAENKEIQKLAEQFVLLNLVYETTDKHLSPDGQYVPRIMFVDPSLTVRADITGRYSNRLYAYEPADTALLLDNMKKALKLLKTEL | 2.3 OD450 | – | – | –
2 | Anterior Gradient-2 (AGR2/PDIA17), AGR2 (21-175), 6x-His tag removed, O95994 S84A (protein) RDTTVKPGAKKDTKDSRPKLPQTLSRGWGDQLIWTQTYEEALYKSKTSNKPLMIIHHLDECPHAQALKKVFAENKEIQKLAEQFVLLNLVYETTDKHLSPDGQYVPRIMFVDPSLTVRADITGRYSNRLYAYEPADTALLLDNMKKALKLLKTEL | 2.7 OD450 | – | – | –
3 | anti-AGR2 monoclonal antibody MAb-15 (VH-VL of scFv-15 in a full human IgG1 backbone) S31R; A53Y (protein) chain 1: EVQLLESGGGLVQPGGSLRLSCAASGFTFSRYAMSWVRQAPGKGLEWVSGISYQGAHTTYADSVKGRFTISRDNSKNTLYLQMNSLRAEDTAVYYCAKTYKGFDYWGQGTLVTVSS chain 2: DIQMTQSPSSLSASVGDRVTITCRASQSISSYLNWYQQKPGKAPKLLIYSASRLQSGVPSRFSGSGSGTDFTLTISSLQPEDFATYYCQQGRRMPPTFGQGTKVEIK | – | 451 | 266 | 751
4 | Anterior Gradient-2 (AGR2/PDIA17), AGR2 (21-175), 6x-His tag removed, O95994 C81A (protein) RDTTVKPGAKKDTKDSRPKLPQTLSRGWGDQLIWTQTYEEALYKSKTSNKPLMIIHHLDEAPHSQALKKVFAENKEIQKLAEQFVLLNLVYETTDKHLSPDGQYVPRIMFVDPSLTVRADITGRYSNRLYAYEPADTALLLDNMKKALKLLKTEL | 2.8 OD450 | – | – | –
5 | Anterior Gradient-2 (AGR2/PDIA17), AGR2 (21-175), 6x-His tag removed, O95994 C81A; S84A (protein) RDTTVKPGAKKDTKDSRPKLPQTLSRGWGDQLIWTQTYEEALYKSKTSNKPLMIIHHLDEAPHAQALKKVFAENKEIQKLAEQFVLLNLVYETTDKHLSPDGQYVPRIMFVDPSLTVRADITGRYSNRLYAYEPADTALLLDNMKKALKLLKTEL | 2.3 OD450 | – | – | –
